This data set in a line: soluble on expression in E. coli; label from the status in PepcDB or PDB records.
For “SLSPPVVMSRMFGAQLFNGTSADSGATVGFNPDYILNPGDSIQVRLWGAFTFDGALQVDPKGNIFLPNVGPVKVAGVSNSQLNALVTSKVKEVYQSNVNVYASLLQAQPVKVYVTGFVRNPGLYGGVTSDSLLNYLIKAGGVDPERGSYVDIVVKRGNRVRSNVNLYDFLLNGKLGLSQFADGDTIIVGPRQHTFSVQGDVFNSYDFEFRESSIPVTEALSWARPKPGATHITIMRKQGLQKRSEYYPISSAPGRMLQNGDTLIVSTDRYAGTIQVRVEGAHSGEHAMVLPYGSTMRAVLEKVRPNSMSQMNAVQLYRPSVAQRQKEMLNLSLQKLEEASLSAQSSTKEEASLRMQEAQLISRFVAKARTVVPKGEVILNESNIDSVLLEDGDVINIPEKTSLVMVHGEVLFPNAVSWQKGMTTEDYIEKCGGLTQKSGNARIIVIRQNGAAVNAEDVDSLKPGDEIMVLPKYESKNIEVTRGISTILYQLAVGAKVILSL”, the “soluble on expression in E. coli” value is “soluble”. The entry for “IQEHAIDLSQKSALVIDEELYLPELSLDTLKGLETLAPFGMNNKKPIFLLRDFTVKQVRTMGQNGAHLKLKVAQEQAVFDLLAFNYGSLVTEFQQAQHLELAVTLSVNRWNGNTSLQ” is “not soluble”; for “MADPNESGLSKSVEIGGISDKLDSMKLSKSKLTFTDLPMDALYECFKQLDYLERMPLRKVCRKFKNAVDGMDPGFKKIRICIYEPEAFDVEFDSNLFYFVKESGNATHYSKFNPRKMLKWKFGNGEDSLEVVMKFVTKMMNFSKYCCKLIERILKQSAYPNLKKIHLFGLNSRQTPSILRHFKPGKLEFLWSDSFNAETMKEMYKLDQWKMAKSQFENIKIRDQCAPGIPSTFGYLWNYHRYAKLVTVGKAVEIKNCLMKSTNFKKWEFCMGMSLDAARVFDPNASGFEISRDGGVKGTIRCLFKGHSVKIDFSPWKFEITKE” it is “not soluble”; for “MSLSDWIDASFTTKQTDAAKSSSQTKPKSVNQVKLDVPLVNQMTTPRLYNGCEVTSLTMLMNYAHINVTKNELAAKITSVPLTYSDGEHGNPEYGFVGDITGNDPGLGVYHKPIYKLAKTETSQVKDLTGANFDTVIEQLEQGRPVWTITTASFAPVSTMQTWQTPQGSVKVTYDMHSVVIVGFNRTKKLIYINNPYGEKQQAVSWKNFEAAYNQMGKQAIVLTLPHEGHHHHHH” it is “soluble”. As to “MDAKVYVGGLPSDATSQELEEIFDRFGRIRKVWVARRPPGFAFVEYDDVRDAEDAVRALDGSRICGVRARVELSTGQRRGGGGRGGGFGGRGGGGRDRSPYRGDRGRSRSRSRDRGRDRSRDRSRDRSRDRSRDRSRERSRERERTRSRSRSPQERDRSHSKSRSRSRSRSRSRSASPH”, the “soluble on expression in E. coli” value is given as “soluble”. On to “MGILFTRIWRLFNHQEHKVIIVGLDNAGKTTILYQFSMNEVVHTSPTIGSNVEEIVINNTRFLMWDIGGQESLRSSWNTYYTNTEFVIVVVDSTDRERISVTREELYKMLAHEDLRKAGLLIFANKQDVKECMTVAEISQFLKLTSIKDHQWHIQACCALTGEGLCQGLEWMMSRLKIRLEHHHHHH”, for which the “soluble on expression in E. coli” value is given as “soluble”.

As for “MSFRIYNTQKWSAEQMAPYLDKVIKSIAYFHKKFPDDYTPQTILNDILKGDKLLWIIVDEQENFMAHVTTELQKLVTGALRAVIVTLGGKGGAPLTKLIPQIEAYYKEKGAKELIIIGRRGWKKSLKSHGYFVNLLEYRKQL”, the “soluble on expression in E. coli” value is on record as “not soluble”. With “MLKNEETEKKLNLNQQRLGTVVAVLKSVNAKKVIDLGCGEGNLLSLLLKDKSFEQITGVDVSYSVLERAKDRLKIDRLPEMQRKRISLFQSSLVYRDKRFSGYDAATVIEVIEHLDENRLQAFEKVLFEFTRPQTVIVSTPNKEYNFHYGNLFEGNLRHRDHRFEWTRKEFQTWAVKVAEKYGYSVRFLQIGEIDDEFGSPTQMGVFTLGAGGHHHHHH” the entry was “soluble”; with “MEQQPQLNDHNKQEYPPMHTAEHLLNATMVKTFGCPRSRNAHIERKKSKCDYILPTCPTDAEIQAIEDKVNEVISQNLPVTVEFMTHEQAKGIVDLSKLPADASETLRIIRIGDYDACACIGLHVSNTSEVGTFKIISHDYNEERQTLRLRFKLIEKK”, “not soluble”; with “AHHHHHHGSPKIEPFEKYTERYEEWFERNKFAYLSELNALKSLLPTRECVEVGIGSGRFAAPLGIKMGVEPSKKMAEIARKRGIRVIEGVAENLPFEDNSLDCILMVTTICFVDDPEKAIKEAYRVLKPGGYIVIGFVDKESLIGREYEKRKDKSVFYRDARFFSAREIMELLERNGFKIDGVVQTLFKKLDEIRDVEPVEEGYGRGSFVVIRAKKVV”, “soluble”. The entry for “GAMEAIYAYEAQGDDEISIDPGDIITVIRGDDGSGWTYGECDGLKGLFPTSYCK” is “soluble”; for “GPGSMMLQPWLRRGSGATQKYVNGEFKDVPQGDALLVCVPEAHTWFSLHKMLCDPECRRRYPYTQSKKELILRIRRFLNDTLVDQIPALASVQRALEELSFMQPPSDTEAKFKSSLTIEQVPRIMAAVEASRTHSWEDVANTFAAMLKDPRIKNEDAMRMARIFDEMFAENERPK” it is “not soluble”. The entry for “MAHHHHHHMDYCEEAYNKLIEFLSENKTEKMMESSLSSALAVALCYNHRIVNMYENMKGRIFLLDISNETYVYTNQYTQLMNIAYNAKRNNIIIDVFSLNCKIQLLEQICNITNGLYIDSSIFFNVNCTDNIEDVLTQTMIFWFLPSNNTRKYFSNTYLNDDTNIAVCSCHNKQVDIAYICSCCLAIYCSEKDEKTNKERTSCFVCKTRFTKALLRNKVVSDLDFSSI” is “not soluble”; for “MPRYCIVNADDFGYSKGVNYGILEAFQHGVVTSATLMANMPAAEHAARLAKEHPELGVGIHFVLTCGRPLADVPSLVNENGEFPRRGEALAGARRSDIERELAAQLERVFSLGLSPTHIDSHHHVHEHPNVFPVVEQLAERYRLPIRPVRTTRPHRLATVDVFFPDFYGDGLTKDHFLTLIDRIGDGQTAEVMCHPAYMDAPLAAGSSYCRQRIEELAVLTDPALSKEIAERGVQLITYREFYQL” it is “not soluble”; for “MATQTAVTATTVPQGSPSVTGSASQGGILNSARQFFSLAAPKVEKDKEFSFRFLTSPLRSKPAATVNADNFYMYACGSINMP” it is “not soluble”. On to “MTKIFIRDDNGGTEMSQDPFQEREAEKYANPIPSREFILEHLTKREKPASRDELAVELHIEGEEQLEGLRRRLRAMERDGQLVFTRRQCYALPERLDLVKGTVIGHRDGYGFLRVEGRKDDLYLSSEQMKTCIHGDQVLAQPLGADRKGRREARIVRVLVPKTSQIVGRYFTEAGVGFVVPDDSRLSFDILIPPDQIMGARMGFVVVVELTQRPTRRTKAVGKIVEVLGDNMGTGMAVDIALRTHEIPYIWPQAVEQQVAGLKEEVPEEAKAGRVDLRDLPLVTIDGEDARDFDDAVYCEKKRGGGWRLWVAIADVSYYVRPPTPLDREARNRGTSVYFPSQVIPMLPEVLSNGLCSLNPQVDRLCMVCEMTVSSKGRLTGYKFYEAVMSSHARLTYTKVWHILQGDQDLREQYAPLVKHLEELHNLYKVLDKAREERGGISFESEEAKFIFNAERRIERIEQTQRNDAHKLIEECMILANISAARFVEKAKEPALFRIHDKPSTEAITSFRSVLAELGLELPGGNKPEPRDYAELLESVADRPDAEMLQTMLLRSMKQAIYDPENRGHFGLALQSYAHFTSPIRRYPDLMLHRAIKYLLAKEQGHQGNTTETGGYHYSMEEMLQLGQHCSMAERRADEATRDVSDWLKCDFMLDQVGNVFKGVISSVTGFGFFVRLDDLFIDGLVHVSSLDNDYYRFDQVGQRLMGESSGQTYRLGDRVEVRVEAVNMDERKIDFSLISSERAPRNVGKTAREKAKKGDAGKKGGKRRQVGKKVNFEPDSAFRGEKKTKPKAAKKDARKAKKPSAKTQKIAAATKAKRAAKKKVAE”, for which the “soluble on expression in E. coli” value was “not soluble”. The entry for “MSLRPTMTDIAKLTGVSQSTVSLVLNNATGAKFSETTRNKVLKAAHDLGYRLSLREPVSASADERNLIVYLADEISTSPHPVVNIDGARDAAYASGKMLAVYSTHGNADIEKQVLDTTLSNPHVFGVIYATVYTRKVTPPAALSQVPTVLLNCYTGEGGFSSVVPAEVAGGHLATDYLLQSGHRRIGYINGEPWQDASKDRLKGYRTALATADLPFAQEMVRDGDWSSGLGFELTLSLMRESNPPTAIFCANDLTAIGAIEALKQLGLRVPEDVSVLGYDDQEIARHTHPPLSTVVLPNYELGRWAVETLLQEEHNRAAGAPVRHRMVKLDGPLVERGSVRVITEAKEGHHHHHH” is “soluble”.
